According to publication PMC5452015, “Sen1 has unique structural features grafted on the architecture of the Upf1‐like helicase family” (The EMBO Journal, 2017):
Positions count from the first letter of the chain named.

Legend:
[1] = molecular target: T1, Sen1Hel (crystal construct, loop 1,471-1,538 removed) (Saccharomyces cerevisiae, UniProt Q00416, DEL1471-1538); experiment: X-ray crystal structure, […] A; format: binding; conditions: 10-fold molar excess ADP, HEPES pH 7.5, 4 C; nucleotide site on RecA1, no RNA
T1 construct: gene SEN1; helicase core 1095-1904 with disordered loop 1471-1538 replaced by a (Gly-Ser)2 linker; C-terminal CPD-His8 tag cut off with 3C; expressed in E. coli; model covers 1096-1875
T1 sequence (Q00416 with tags, fused parts or gaps DEL1471-1538): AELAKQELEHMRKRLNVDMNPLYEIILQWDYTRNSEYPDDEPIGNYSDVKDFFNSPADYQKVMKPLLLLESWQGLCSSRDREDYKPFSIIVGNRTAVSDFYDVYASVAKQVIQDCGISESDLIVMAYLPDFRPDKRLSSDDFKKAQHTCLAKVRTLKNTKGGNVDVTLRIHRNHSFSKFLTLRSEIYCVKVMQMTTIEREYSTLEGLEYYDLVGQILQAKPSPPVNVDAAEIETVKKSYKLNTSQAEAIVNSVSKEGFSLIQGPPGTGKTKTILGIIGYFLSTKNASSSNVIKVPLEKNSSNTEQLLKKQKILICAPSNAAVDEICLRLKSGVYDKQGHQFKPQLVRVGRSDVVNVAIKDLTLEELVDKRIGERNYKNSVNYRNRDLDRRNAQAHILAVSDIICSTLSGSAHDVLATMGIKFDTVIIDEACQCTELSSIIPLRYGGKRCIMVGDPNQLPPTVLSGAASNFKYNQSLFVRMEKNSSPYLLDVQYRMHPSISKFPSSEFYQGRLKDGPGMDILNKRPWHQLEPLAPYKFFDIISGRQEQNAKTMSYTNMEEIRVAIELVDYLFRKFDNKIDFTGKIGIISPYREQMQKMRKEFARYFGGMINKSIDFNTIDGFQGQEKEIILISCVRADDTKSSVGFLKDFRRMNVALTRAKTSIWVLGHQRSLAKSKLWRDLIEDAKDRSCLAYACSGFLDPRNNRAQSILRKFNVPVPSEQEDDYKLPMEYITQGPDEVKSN

Sen1Hel = molecular target: T2, Sen1Hel (Saccharomyces cerevisiae, UniProt Q00416); experiment: ATP hydrolysis, alpha-32P-ATP, thin-layer chromatography; format: biochemical; conditions: polyU 50 ng/ul, 250 uM ATP, 1 mM MgCl2, pH 7.5, 28 C
T2 construct: gene SEN1; helicase core 1095-1904, ~90 kDa; C-terminal CPD-His8 tag cut off with 3C protease; expressed in E. coli BL21 (DE3) STAR pRARE
T2 sequence (Q00416 1095-1904): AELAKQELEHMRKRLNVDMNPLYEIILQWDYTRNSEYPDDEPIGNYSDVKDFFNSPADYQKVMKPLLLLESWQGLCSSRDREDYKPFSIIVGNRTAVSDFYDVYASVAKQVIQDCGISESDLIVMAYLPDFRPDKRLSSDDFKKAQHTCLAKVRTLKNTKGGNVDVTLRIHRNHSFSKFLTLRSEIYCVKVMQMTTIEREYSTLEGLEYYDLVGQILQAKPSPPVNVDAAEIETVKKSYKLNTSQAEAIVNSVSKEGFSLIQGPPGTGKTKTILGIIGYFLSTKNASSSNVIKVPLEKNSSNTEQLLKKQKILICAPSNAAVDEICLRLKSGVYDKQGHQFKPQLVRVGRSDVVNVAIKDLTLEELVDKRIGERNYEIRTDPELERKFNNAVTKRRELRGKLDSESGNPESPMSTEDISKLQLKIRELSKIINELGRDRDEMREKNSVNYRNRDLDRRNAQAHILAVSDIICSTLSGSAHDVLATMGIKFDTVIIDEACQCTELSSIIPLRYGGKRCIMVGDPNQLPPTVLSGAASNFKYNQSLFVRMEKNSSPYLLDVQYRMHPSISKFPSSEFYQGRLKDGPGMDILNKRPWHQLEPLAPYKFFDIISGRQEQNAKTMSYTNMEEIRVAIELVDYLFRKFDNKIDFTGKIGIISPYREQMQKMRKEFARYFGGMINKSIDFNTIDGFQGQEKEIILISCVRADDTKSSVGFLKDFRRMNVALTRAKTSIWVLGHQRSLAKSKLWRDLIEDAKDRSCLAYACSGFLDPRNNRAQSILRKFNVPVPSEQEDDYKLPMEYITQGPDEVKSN

Sen1Hel (wild type) [2] = molecular target: T3, Sen1Hel (wild type) (Saccharomyces cerevisiae, UniProt Q00416 1095-1904); experiment: EMSA; high-order complexes at high protein; FA: 20 mM Hepes pH 7.5, 300 mM NaCl, 2 mM MgCl2, 1 mM DTT, 20 C, 10 nM RNA; EMSA: 2 nM RNA, 10-160 nM protein (buffer not in the material); conditions: protein: recombinant; tags: C-terminal CPD-His8 removed by 3C; label: 5' fluorescent label
T3 sequence: T2 sequence (Q00416 1095-1904)

Sen1Hel deltaLP = molecular target: T4, Sen1Hel deltaLP (Saccharomyces cerevisiae, UniProt Q00416 1095-1904, del1461-1554); experiment: EMSA; FA: 20 mM Hepes pH 7.5, 300 mM NaCl, 2 mM MgCl2, 1 mM DTT, 20 C, 10 nM RNA; EMSA: 2 nM RNA, 10-160 nM protein (buffer not in the material); conditions: protein: recombinant; tags: C-terminal CPD-His8 removed by 3C; label: 5' fluorescent label
T4 sequence: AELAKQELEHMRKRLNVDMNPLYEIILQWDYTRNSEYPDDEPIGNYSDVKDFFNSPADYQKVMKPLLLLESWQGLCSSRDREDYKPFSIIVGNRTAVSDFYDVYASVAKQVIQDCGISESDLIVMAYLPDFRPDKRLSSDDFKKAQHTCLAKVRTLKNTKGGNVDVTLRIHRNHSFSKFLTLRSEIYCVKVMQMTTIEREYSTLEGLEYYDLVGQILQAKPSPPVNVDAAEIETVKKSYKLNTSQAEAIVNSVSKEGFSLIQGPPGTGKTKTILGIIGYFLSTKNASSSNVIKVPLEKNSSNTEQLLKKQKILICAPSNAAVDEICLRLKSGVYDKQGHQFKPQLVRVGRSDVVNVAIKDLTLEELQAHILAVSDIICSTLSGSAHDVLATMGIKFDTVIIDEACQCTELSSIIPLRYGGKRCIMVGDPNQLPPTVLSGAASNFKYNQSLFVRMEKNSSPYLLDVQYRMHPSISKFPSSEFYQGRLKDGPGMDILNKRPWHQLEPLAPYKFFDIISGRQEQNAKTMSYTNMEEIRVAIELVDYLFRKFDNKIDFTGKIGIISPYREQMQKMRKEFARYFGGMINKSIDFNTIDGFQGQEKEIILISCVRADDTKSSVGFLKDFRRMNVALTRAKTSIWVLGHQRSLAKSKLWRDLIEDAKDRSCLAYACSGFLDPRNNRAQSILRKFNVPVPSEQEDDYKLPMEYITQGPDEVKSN

Sen1Hel P1622L = molecular target: T5, Sen1Hel P1622L (Saccharomyces cerevisiae, UniProt Q00416 1095-1904, P1622L); experiment: fluorescence anisotropy; 2 mM Mg2+; FA: 20 mM Hepes pH 7.5, 300 mM NaCl, 2 mM MgCl2, 1 mM DTT, 20 C, 10 nM RNA; EMSA: 2 nM RNA, 10-160 nM protein (buffer not in the material); conditions: protein: recombinant; tags: C-terminal CPD-His8 removed by 3C; label: 5' fluorescein
T5 sequence: T2 sequence (Q00416 1095-1904) with P528L

Sen1Hel (wild type) [3] = molecular target: T3, Sen1Hel (wild type); experiment: as above; conditions: protein: recombinant; tags: C-terminal CPD-His8 removed by 3C; label: 5' fluorescein
Sen1Hel N1413S = molecular target: T6, Sen1Hel N1413S (Saccharomyces cerevisiae, UniProt Q00416 1095-1904, N1413S); experiment: fluorescence anisotropy; 2 mM Mg2+; text says impaired; FA: 20 mM Hepes pH 7.5, 300 mM NaCl, 2 mM MgCl2, 1 mM DTT, 20 C, 10 nM RNA; EMSA: 2 nM RNA, 10-160 nM protein (buffer not in the material); conditions: protein: recombinant; tags: C-terminal CPD-His8 removed by 3C; label: 5' fluorescein
T6 sequence: T2 sequence (Q00416 1095-1904) with N319S

## Nc1ncnc2c1ncn2[C@@H]1O[C@H](COP(=O)(O)OP(=O)(O)O)[C@@H](O)[C@H]1O [ADP]
[1]
  X-ray crystal structure, 1.8 A: We crystallized Sen1Hel in the presence of ADP and determined the structure

## Nc1ncnc2c1ncn2[C@@H]1O[C@H](COP(=O)(O)OP(=O)(O)OP(=O)(O)O)[C@@H](O)[C@H]1O [ATP]
Sen1Hel
  ATP hydrolysis, alpha-32P-ATP, thin-layer chromatography: Sen1Hel showed levels of RNA‐dependent ATPase activity similar to those of full‐length Sen1

## UUCAUUUCAGACCAGCACCCACUCACUACAACUCACGACCAGGC (ssRNA) [DL3316 44-mer RNA]
Sen1Hel (wild type) [2]
  binding result: binds
Sen1Hel deltaLP
  binding result: binds

## UUUCUAUUUAUUUUG (ssRNA) [ARE 15-mer AU-rich RNA]
Sen1Hel P1622L
  Kd: ~6.4 µM
Sen1Hel (wild type) [3]
  Kd: ~600 nM
Sen1Hel N1413S
  binding result: no binding
